# Assay: soluble on expression in E. coli; label from the status in PepcDB or PDB records
row,Sequence,soluble on expression in E. coli
1,MAHHHHHHMGIGWEKLDNWEDVPDAGGKYGPLRGPSLVDLQGHVFAIAEAHCKDGGDCSDVGFTGIASKYLDLIGVADPTEILTADASIFGADLLKEGSEVISARNGITRPTTLVLGDSVYVLPGNYSHTGPQVGGTNERGLLLLKGTLTDEGGRKKIKWNETHVVEPQGRGDSRSLTELVGGGGSGAVLRDGTLVFPMQAKDKDGTSVLLSMRFPNSGNKWELSSETPGKGCRDPTLVKWEEKKDDERLFMMAHCAGDYYDVYRSTPHGVNWYTSGQPITRVWGNSHNRKGTVSGVDPPPQSLRKRS,not soluble
2,MAEAPPVSGTFKFNTDAAEFIPQERKTSGLNCGTQRRLDSSRIGRRNYSSSPPCHLPRHIPYEDISAVHQHSYASGSKPKSPQGFFQSSNKSLKNHGLQNQPWQKARNEKHQNRNKKAQGLSEQTSDTSSLESVARSESGTNPREHSPSESEKEVVIADPRGAKPKKAAQLTYNYGRGPKAKGRLRSEWGNRMSPKSEDENTRPVAISHTDSSDASCRKPVVDPCVCRRNEQRRYPQKRPPWEVEGARPRPGRNPPKQESQRHINAGPKTNMSPIPKDNLRERPTKSACDTGNLAVVSKSSRRVNQEKTAVRRQDPQVLSPFPRGKQNHMLKNVETHTGSLIEQLTTEKYECMVCCELVQVTAPVWSCQSCFHVFHLNCIKKWARSPASHADGQSGWRCPACQNVSAHVPNTYTCFCGKVKNPEWSRNEIPHSCGEVCRKKQPGQDCPHSCNLLCHPGPCPPCPAFTTKTCECGRTRHTVRCGQPVSVHCSNACENILNCGQHHCAELCHGGQCQPCRIILNQVCYCGSTSRDVLCGTDVGKSDGFGDFSCLKICGKDLKCGSHTCSQVCHPQPCQPCPRLPHLVRYCPCGQTPLSQLLEHGSNARKTCMDPVPSCGKVCGKPLACGSSDFIHTCEKLCHEGDCGPCSRTSVISCRCSFRTKELPCTSLKSEDATFMCDKRCNKKRLCGRHKCNEICCVDKEHKCPLICGRKLRCGLHRCEEPCHRGNCQTCWQASFDELTCHCGASVIYPPVPCGTRPPECTQTCARIHECDHPVYHSCHSEEKCPPCTFLTQKWCMGKHEELTIKKLWTFKETLDF,soluble
3,MGSDKIHHHHHHINKDNITTDTAEESKQQDSNKKQELPTATYMGGSNTITEVCDELGSAGASHVDTFKEWVTDFADSAGKNAKLKDTWSDAYKMKADTVKCMDGWEKKHDYSDADCRMTAFLLLDGLLHAQSTEDSYSGTYLMFDTEAIDNVDRYEIIRQNKDMFTTLYGEKSITDDKHPEKTFSDNWKKYGFQIDSNCISLISIAIYDPDSDAMFVGHTGVLIKYSDYYLFVEKIAFEQPYQATKVNNMDELLSILSLRPEYFGEEKEAGPFVYNNGDYVGTLELQG,not soluble
4,LSYHVIGPLRELTSTARRLGRGELDARVTYSGEDELAQLGERFNQMAGELKSIYGDLEERVEDKTRALSQSHQRLELLYASARRLGENPYDSRTLQPLLNQLEKVLDAGRVTLCLNKDGVERAYSSLTTTERPADFCLQGDCGSCREQASACDQPSSLAQPLLMQPLSIAGHRFGELFIESRSGRLENWQQQLIETFCDNIARTFALSLQQEQESRLALFAERGTIARELHDSLAQSLSYLKIQVSRLGTLLKREAPAEKIEDTLDELREGLNGAYRQLRELLTTFRLSLDEPSLEAALGNAVAEFGERGEVTIELDNRLQHVPLSPNEEIHVLQIVREALSNVVRHSQAQRAWVRLSSQADGQVSIAVEDDGVGFDPQQNRSGHYGLTIMQERGQTLGSQLRFEARAPHGTRVLFSFVPTALQP,not soluble
5,GIPRNSSTGAKTAKSDKLKVVATNSIIADMTKAIAGDKIDLHSIVPIGQDPHEYEPLPEDAEKTSNADVIFYNGINLEDGGQAWFTKLVKNAQKTKNKDYFAVSDGIDVIYLEGASEKGKEDPHAWLNLENGIIYSKNIAKQLIAKDPKNKETYEKNLKAYVAKLEKLDKEAKSKFDAIAENKKLIVTSEGCFKYFSKAYGVPSAYIWEINTEEEGTPDQISSLIEKLKVIKPSALFVESSVDRRPMETVSKDSGIPIYSEIFTDSIAKKGKPGDSYYAMMKWNLDKISEGLAK,soluble
6,MSLSVKIVIKPNTYFDSVSLMSISTRANKLDGVEQAFVAMATEMNKGVLKNLGLLTPELEQAKNGDLMIVINGKSGADNEQLLVEIEELFNTKAQSGSHEARYATIGSAKKHIPESNLAVISVNGLFAAREARQALQNDLNVMLFSDNVSVEDELALKQLAHEKGLLMMGPDCGTAIINGAALCFGNAVRRGNIGIVGASGTGSQELSVRIHEFGGGVSQLIGTGGRDLSEKIGGLMMLDAIGMLENDPQTEIIALISKPPAPAVARKVLERARACRKPVVVCFLDRGETPVDEQGLQFARGTKEAALKAVMLSGVKQENLDLHTLNQPLIADVRARLQPQQKYIRGLFCGGTLCDETMFAVMEKHGDVYSNIQPDPEFRLKDINRSIKHTFLDFGDDDFTNGKPHPMIDPTNRISRLIEEARDPEVAVIVMDFVLGFGSHEDPVGSTIETIKEAKAIAAAEGRELIILAYVLGTDLDTPSLEQQSQMLLDAGVILASSSTNTGLLAREFICKGEEGHHHHHH,soluble
7,ASTRNLMIEGENLEVLKLLQKSYAGRAKLVYIDPPYNTGKDFVYSDNFTDSLRHYLELTGQTTDGKRISSHTDASGRFHTDWLNMIYPRLKLARDLLADDGVIAVHIDEHEQHALVLVMREIFGEDNELGVAVWDKRNPKGDARGIAYQHESIVLFARDAQLLFERAPLKRPKRNAQRMLDAARGAIAGAATIADANAAYRAWVKSQTTLSGGEAMYDRISADGRVYRLVSMAWPNKKKAPDDYFVPLVHPVTGKPCPVPERGWRNPPATMQALIDKGLVEFGADETTQPQRIYFLDENMYENVPSVLPFGGSDDALMKSLGIPFDQPKPVEFAASIIGWCTDGDDLIVDFFGGSGTTGHAVMALNAADGGNRRYVLVQLPEPLDAGSKDQKAAADFCAAQRVPLNLAELTKERLRRAAARVAAEHPGTR,soluble
8,SPEIMKNLSNNFGKAMDQCKDELSLPDSVVADLYNFWKDDYVMTDRLAGCAINCLATKLDVVDPDGNLHHGNAKDFAMKHGADETMAQQLVDIIHGCEKSAPPNDDKCMKTIDVAMCFKKEIHKLNWVPNMDLVIGEVLAEV,soluble
9,QIDYRDVFIEFLTTFKGNNNQNKYIERINELVAYRKKSLIIEFSDVLSFNENLAYEIINNTKIILPILEGALYDHILQLDPTYQRDIEKVHVRIVGIPRVIELRKIRSTDIGKLITIDGILVKVTPVKERIYKATYKHIHPDCMQEFEWPEDEEMPEVLEMPTICPKCGKPGQFRLIPEKTKLIDWQKAVIQERPEEVPSGQLPRQLEIILEDDLVDSARPGDRVKVTGILDIKQDSPVKRGSRAVFDIYMKVSSIEVSQKVLDEVIISEEDEKKIKDLAKDPWIRDRIISSIAPSIYGHWELKEALALALFGGVPKVLEDTRIRGDIHILIIGDPGTAKSQMLQFISRVAPRAVYTTGKGSTAAGLTAAVVREKGTGEYYLEAGALVLADGGIAVIDEIDKMRDEDRVAIHEAMEQQTVSIAKAGIVAKLNARAAVIAAGNPKFGRYISERPVSDNINLPPTILSRFDLIFILKDQPGEQDRELANYILDVHSGKSTKNIIDIDTLRKYIAYARKYVTPKITSEAKNLITDFFVEMRKKSSETPDSPILITPRQLEALIRISEAYAKMALKAEVTREDAERAINIMRLFLESVG,soluble
10,MSLGQGIPANPADGAGEWGDYRDCDSPWKAVEDAVRAAARQHPDAAYVYYTGDIIDHGVWETTVAGNIVSMTRTYQLFRDVFGSKPVYNVLGNHENNPTNVFAPSYITQSEFSAKWLYDFSADQWSTWLPTASQQTIRQGGFYTVLVRPGFRIIGMNNNDAYTFNWWILYDPAYLQAQLQWVHDTLLQAEAAGEKVHILAHIPIGAGTSYRTWARQYRRILDRFWDVITAHFHGHTHADEFNVFYSLANPQHAISAGFNGGGTVPFSNYNPNYVVYYVNPQTYDVTDFESWYFSLTEANQNPNREGHHHHHH,not soluble
11,MCLVQATGGSSTHKLVSAGAEKMIITRPDFVDPPGSKDISITRTARAPKEDKLVIHFCTCRCN,not soluble
12,MGHPARMAILSFLAKQESCFFGDIHEELPIAKATVSQHLKELKDAGLIQGEIETPKVRYCINKENWELARKLFAAFLGDCKCTGTSCCG,not soluble
13,MISITSAEVGMKINEWHRHIQKFNVTDAEMLKAEIERDIEVMEEDQDLLIYYQLMAFRHKIMLEYTLPSDENRMELSEYLNKIEGHKKKLDNMRAYYYNFFRGMYEFRNGEYTRAITYYKKAERKIPTISDKIEKAEFYFKLSEVYYHMKMTHISMHYAELSYNIYKKHELYSVRRIQCHFVIAGNYDDLENHEKALPHLQEALKGAELLKSKNTHIYATAFFNLGNCYHKMDNLNKAARYIEQALVQYRKINSDVLPQAYHDLALIYFKQGKKGQAMDCFRKGIRSAVDFKDELFMNLFEALDVLYIRNGDTPKLLNIFSRLENGKGYPYLEELALLGGNLFDYNGKIEDSIICFKK,not soluble
14,MFTIKKATTNDIQLINEMAQIVFPATYREILSKEQLDYMMDWMYSPKNLRKQMEEEGHIYYIAYKDGEAAGYVSIQPEGEHLFHLQKIYVLPLFQGCRLGKALFEQAVKAIKEIHPGPCEMHLNVNRNNKALQFYQHLGMEKVAEGDFHIGNGYYMNDYIMGLKI,not soluble
15,MTYFTSWDEFAKAAERLHSANPEKCRFVTKYNHTKGQLVLKLTDDVVCLQYSTNQLQDVKKLEKLSSTLLRGIVTQ,soluble
16,MNQLKGIHHVTAITSSAEKNYEFFTHVLGMRLVKKTVNQDDIQTYHLFFADDKGSAGTDMTFFDFPGVPKGVHGTNEISKTSFRVPTDAALAYWVKRFDRLEVEHTGIKEQFGKKTLSFVDFDDQHYQLISDELDKGIESGTPWQNGPVPLEYAITGLGPVFIRIANFSFFKEVLEKVLLFKEIAQEGEFYLFEVNKGGNGASVIVEHNTVLPEAQQGFGTVHHAAFRVEDRAVLEEWIERISSVGLPSSGYVNRHFFESLYARVAPQILFEFATDGPGFMGDESYETLGEKLSLPPFLEPKREEIEKLVRPIDTVRSTKEFIKE,not soluble
17,MSLDIAVVGIGYVGLVSATCFAELGANVRCIDTDRNKIEQLNSGTIPIYEPGLEKMIARNVKAGRLRFGTEIEQAVPEADIIFIAVGTPAGEDGSADMSYVLDAARSIGRAMSRYILIVTKSTVPVGSYRLIRKAIQEELDKREVLIDFDIASNPEFLKEGNAIDDFMKPDRVVVGVDSDRARELITSLYKPMLLNNFRVLFMDIASAEMTKYAANAMLATRISFMNDVANLCERVGADVSMVRLGIGSDSRIGSKFLYPGCGYGGSCFPKDVKALIRTAEDNGYRMEVLEAVERVNEKQKSILFDKFSTYYKGNVQGRCVAIWGLSFKPGTDDMREAPSLVLIEKLLEVGCRVRVYDPVAMKEAQKRLGDKVEYTTDMYDAVRGAEALFHVTEWKEFRMPDWSALSQAMAASLVIDGRNVYELPADSDFTLLNIGNSAIESEGHHHHHH,soluble
18,MSDPSAKPLQEHILIILDDAGRREVLLTETFYTIGRSPRADIRIKSQFVSRIHAVLVRKSSDDVQAAYRIIDGDEDGQSSVNGLMINGKKVQEHIIQTGDEIVMGPQVSVRYEYRRRDQFGTMLEHHHHHH,soluble
19,MLYPNERKSSVHAIPYQDQLKQVQSAVDEFQKANGGLLPIQTKDMSTPLYQKYPIDFNRLAPRYIAEPPSTAFESGGDYQYVLVDVENDPTVKLIDLKMAEKIRDVKLRIQMYRQEHQYPPYKDVLSRDLFTLDEKKLGDGSSLTVTSPISGNSLPLMIDGDGEIYADYRTELASCLKKSKKTFKPGTEIQDMIWHETPFVPAFSVKYTVNDKQEPVFLENDMKKELEHHHHHH,soluble
20,MAKEKIIVENEQSVEEKLAALSKLQNTLSEIDKIKTLRGELPLEVQDLEDEIAGMQTRLENFTAGSKQLNQAVTTEKEKISTAKTLLEKYKKQLDEVRNNREFDNLSKEIEFQELEIQLSEKKIKEYNVEIQQRKTDIATLKEVLEEHSEVLAEKRGELDTIIAETKQEEEKLREKAKKLEAKIEPRLLTAFKRIRKAAHNGLAVVPVERDACGGCFNKIPPQKQLDVKLRKKIIVCEYCGRIMVDPEMGA,not soluble

# Reference: the DeepSol protein solubility set
